Source: patent US20210214447A1 (SHANGHAI INSTITUTE OF MATERIA MEDICA CHINESE ACADEMY OF …, published 2021)

T1: human AXL on the surface of tumor cells (human, UniProt P30530 26-894)
T1 construct: whole, on cells; endogenous protein of human tumor cell lines; the cell line is named under assay or readout; also called AXL on the cell surface
T1 sequence (looked up): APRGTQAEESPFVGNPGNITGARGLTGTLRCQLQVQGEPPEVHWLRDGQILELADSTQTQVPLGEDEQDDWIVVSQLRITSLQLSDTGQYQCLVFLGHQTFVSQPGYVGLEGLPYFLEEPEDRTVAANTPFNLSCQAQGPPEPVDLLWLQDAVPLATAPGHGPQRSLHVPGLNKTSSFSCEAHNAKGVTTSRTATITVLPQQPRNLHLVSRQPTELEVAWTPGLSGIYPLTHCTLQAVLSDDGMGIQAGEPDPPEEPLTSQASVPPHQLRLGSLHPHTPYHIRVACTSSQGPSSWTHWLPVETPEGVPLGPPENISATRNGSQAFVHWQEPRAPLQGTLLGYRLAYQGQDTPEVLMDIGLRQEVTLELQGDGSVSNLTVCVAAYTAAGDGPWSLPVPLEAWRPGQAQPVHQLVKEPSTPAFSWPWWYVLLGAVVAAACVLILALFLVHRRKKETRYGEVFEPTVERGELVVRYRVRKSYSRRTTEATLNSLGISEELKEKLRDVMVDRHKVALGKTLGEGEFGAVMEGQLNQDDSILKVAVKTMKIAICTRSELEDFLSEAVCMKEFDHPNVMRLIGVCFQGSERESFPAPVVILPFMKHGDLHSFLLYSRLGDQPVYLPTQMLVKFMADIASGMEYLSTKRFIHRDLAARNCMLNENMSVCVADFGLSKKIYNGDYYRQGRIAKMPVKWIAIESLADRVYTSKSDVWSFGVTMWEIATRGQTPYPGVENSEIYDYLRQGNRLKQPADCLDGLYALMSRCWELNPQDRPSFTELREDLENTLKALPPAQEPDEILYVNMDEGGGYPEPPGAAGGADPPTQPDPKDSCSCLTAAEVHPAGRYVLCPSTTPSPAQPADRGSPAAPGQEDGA

T2: extracellular domain of human AXL protein (AXL-ECD) (human, UniProt P30530 31-449)
T2 construct: expressed in HEK293T cells; coated on the ELISA plate; also called AXL-ECD protein; human AXL extracellular domain protein
T2 sequence: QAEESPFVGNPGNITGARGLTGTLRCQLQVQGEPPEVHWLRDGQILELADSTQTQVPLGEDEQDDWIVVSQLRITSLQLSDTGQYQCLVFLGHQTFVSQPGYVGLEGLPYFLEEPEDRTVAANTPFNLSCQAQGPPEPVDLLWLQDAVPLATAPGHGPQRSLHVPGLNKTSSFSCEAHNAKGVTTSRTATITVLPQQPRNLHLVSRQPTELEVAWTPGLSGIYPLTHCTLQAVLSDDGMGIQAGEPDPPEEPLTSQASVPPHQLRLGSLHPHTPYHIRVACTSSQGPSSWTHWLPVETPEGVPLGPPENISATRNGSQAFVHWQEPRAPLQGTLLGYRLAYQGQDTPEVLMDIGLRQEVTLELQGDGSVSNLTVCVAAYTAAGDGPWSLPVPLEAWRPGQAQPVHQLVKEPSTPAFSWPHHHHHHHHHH


Assays:
[1] = molecular target: T1, human AXL on the surface of tumor cells; assay: FACS on LCLC-103H cells
Experimental: (§1) Then the obtained solutions were incubated at 4° C. for 1 h, the cells were washed twice with PBS to remove unbound primary antibody, and then the target cells were incubated with 200 μL PE-labeled secondary antibody (2 μg/mL) at 4° C. for 30 min. The cells were washed twice with PBS to remove unbound secondary antibody. Finally, the cells were resuspended in 200 μL PBS, and the binding affinity of the test antibody to AXL on the cell surface was determined by a flow cytometer (FACSCalibur)
The experimental method was referred to Example 8.

[2] = molecular target: T1, human AXL on the surface of tumor cells; assay: FACS on MDA-MB-231 cells
Experimental: as §1
24 humanized antibodies in Table-6 were diluted by gradient, and their affinities to AXL, on the surface of MDA-MB-231 cells were determined by flow cytometer. The experimental method was referred to Example 8.

[3] = molecular target: T2, extracellular domain of human AXL …; assay: ELISA, plate-coated AXL-ECD
Experimental: The extracellular domain of AXL protein (AXL-ECD) was diluted to […] with the coating solution, and coated onto ELISA plate with 100 μL/well at 4° C. overnight. The excess antigen was washed off. The plate was blocked with 1% BSA at room temperature for 2 h, then each monoclonal antibody in a 3-fold dilution was added at 100 µL/well. The plate was incubated at room temperature for 1 h; the unbound antibody was washed off, and appropriate concentration of anti-mouse secondary antibody labeled with horseradish peroxidase was added at 100 µL/well. The plate was incubated at room temperature for 0.5 h. The unbound secondary antibody was washed off. TMB Substrate was added and reacted for about 15 minutes. 1N HCL was added at 50 µL/well to stop the color reaction. Then the absorbance was measured at 450 nm and the obtained data was analyzed.
24 humanized antibodies in Table-6 were diluted by gradient, and their affinity to AXL-ECD protein was determined by ELISA. The experimental method was referred to Example 4.

| Binder | EC50 [1] | EC50 [2] | Highest MFI value (FACSCalibur) [2] | EC50 [3] | TOP (OD450) [3] |
| --- | --- | --- | --- | --- | --- |
| Hu002-5 (antibody, V domains shown, humanized from mAb002c; also called Hu002c-5) VH: QVQLVQSGAEVKKPGASVKVSCKASGYPFTDFYINWVRQAPGQGLEWMGWIYPGSGNTKYNEKFKGRVTLTVDTSISTAYMELSRLRSDDTAVYYCARSTGFFDYWGQGTLVTVSS VL: EIVLTQSPATLSLSPGERATLSCSASSSIGYMYWYQQKPGQAPRLLIYLTSNLASGIPARFSGSGSGTDYTLTISSLEPEDFAVYYCQQWSSNPPTFGQGTKLEIK | 0.36 nM | 0.114 nM | 275 MFI | 0.05 nM | 3.59 OD450 |
| Hu002-18 (antibody, V domains shown, humanized from mAb002c; also called Hu002c-18) VH: QVQLVQSGAEVKKPGASVKVSCKASGYPFTDFYINWVKQAPGQGLEWIGWIYPGSGNTKYNEKFKGRVTLTVDTSISTAYMELSRLRSDDTAVYYCARSTGFFDYWGQGTLVTVSS VL: EIVLTQSPDFQSVTPKEKVTITCSASSSIGYMYWYQQKPDQSPKLLIYLTSNLASGVPSRFSGSGSGTDYTLTINSLEAEDAATYYCQQWSSNPPTFGQGTKLEIK | – | 0.111 nM | 277 MFI | 0.055 nM | 3.71 OD450 |
| Hu002-1 (antibody, V domains shown, humanized from mAb002c; also called Hu002c-1) VH: QVQLVQSGAEVKKPGASVKVSCKASGYPFTDFYINWVRQAPGQGLEWMGWIYPGSGNTKYNEKFKGRVTMTRDTSISTAYMELSRLRSDDTAVYYCARSTGFFDYWGQGTLVTVSS VL: EIVLTQSPATLSLSPGERATLSCSASSSIGYMYWYQQKPGQAPRLLIYLTSNLASGIPARFSGSGSGTDFTLTISSLEPEDFAVYYCQQWSSNPPTFGQGTKLEIK | 0.28 nM | 0.101 nM | 277 MFI | 0.07 nM | 3.62 OD450 |
| Hu002-4 (antibody, V domains shown, humanized from mAb002c; also called Hu002c-4) VH: QVQLVQSGAEVKKPGASVKVSCKASGYPFTDFYINWVRQAPGQGLEWMGWIYPGSGNTKYNEKFKGRVTMTRDTSISTAYMELSRLRSDDTAVYYCARSTGFFDYWGQGTLVTVSS VL: EIVLTQSPATLSLSPGERATLSCSASSSIGYMYWYQQKPGQAPRLLIYLTSNLASGIPARFSGSGSGTDYTLTISSLEPEDFAVYYCQQWSSNPPTFGQGTKLEIK | 0.49 nM | 0.09 nM | 277 MFI | 0.055 nM | 3.6 OD450 |
| Hu002-16 (antibody, V domains shown, humanized from mAb002c; also called Hu002c-16) VH: QVQLVQSGAEVKKPGASVKVSCKASGYPFTDFYINWVRQAPGQGLEWMGWIYPGSGNTKYNEKFKGRVTMTRDTSISTAYMELSRLRSDDTAVYYCARSTGFFDYWGQGTLVTVSS VL: EIVLTQSPDFQSVTPKEKVTITCSASSSIGYMYWYQQKPDQSPKLLIYLTSNLASGVPSRFSGSGSGTDYTLTINSLEAEDAATYYCQQWSSNPPTFGQGTKLEIK | – | 0.082 nM | 282 MFI | 0.047 nM | 3.76 OD450 |

Results, then the binder that gave them:

| EC50 [1] | EC50 [2] | Highest MFI value (FACSCalibur) [2] | EC50 [3] | TOP (OD450) [3] | Binder |
| --- | --- | --- | --- | --- | --- |
| – | 0.098 nM | 262 MFI | 0.051 nM | 3.65 OD450 | Hu002-24 (antibody, V domains shown, humanized from mAb002c; also called Hu002c-24) VH: QVQLVQSGAEVKKPGASVKVSCKASGYPFTDFYINWVKQAPGQGLEWIGWIYPGSGNTKYNEKFKGRVTLTVDTSISTAYMELSRLRSDDTAVYYCARSTGFFDYWGQGTLVTVSS VL: QIVLTQSPDFQSVTPKEKVTITCSASSSIGYMYWYQQKPDQSPKSLIYLTSNLASGVPSRFSGSGSGTDYTLTINSLEAEDAATYYCQQWSSNPPTFGQGTKLEIK |
| – | 0.099 nM | 277 MFI | 0.054 nM | 3.71 OD450 | Hu002-20 (antibody, V domains shown, humanized from mAb002c; also called Hu002c-20) VH: QVQLVQSGAEVKKPGASVKVSCKASGYPFTDFYINWVRQAPGQGLEWMGWIYPGSGNTKYNEKFKGRVTLTVDTSISTAYMELSRLRSDDTAVYYCARSTGFFDYWGQGTLVTVSS VL: EIVLTQSPDFQSVTPKEKVTITCSASSSIGYMYWYQQKPDQSPKSLIYLTSNLASGVPSRFSGSGSGTDYTLTINSLEAEDAATYYCQQWSSNPPTFGQGTKLEIK |
| – | 0.098 nM | 276 MFI | 0.057 nM | 3.69 OD450 | Hu002-23 (antibody, V domains shown, humanized from mAb002c; also called Hu002c-23) VH: QVQLVQSGAEVKKPGASVKVSCKASGYPFTDFYINWVRQAPGQGLEWMGWIYPGSGNTKYNEKFKGRVTLTVDTSISTAYMELSRLRSDDTAVYYCARSTGFFDYWGQGTLVTVSS VL: QIVLTQSPDFQSVTPKEKVTITCSASSSIGYMYWYQQKPDQSPKSLIYLTSNLASGVPSRFSGSGSGTDYTLTINSLEAEDAATYYCQQWSSNPPTFGQGTKLEIK |
| – | 0.121 nM | 278 MFI | 0.059 nM | 3.73 OD450 | Hu002-19 (antibody, V domains shown, humanized from mAb002c; also called Hu002c-19) VH: QVQLVQSGAEVKKPGASVKVSCKASGYPFTDFYINWVRQAPGQGLEWMGWIYPGSGNTKYNEKFKGRVTMTRDTSISTAYMELSRLRSDDTAVYYCARSTGFFDYWGQGTLVTVSS VL: EIVLTQSPDFQSVTPKEKVTITCSASSSIGYMYWYQQKPDQSPKSLIYLTSNLASGVPSRFSGSGSGTDYTLTINSLEAEDAATYYCQQWSSNPPTFGQGTKLEIK |
| – | 0.132 nM | 273 MFI | 0.046 nM | 3.71 OD450 | Hu002-21 (antibody, V domains shown, humanized from mAb002c; also called Hu002c-21) VH: QVQLVQSGAEVKKPGASVKVSCKASGYPFTDFYINWVKQAPGQGLEWIGWIYPGSGNTKYNEKFKGRVTLTVDTSISTAYMELSRLRSDDTAVYYCARSTGFFDYWGQGTLVTVSS VL: EIVLTQSPDFQSVTPKEKVTITCSASSSIGYMYWYQQKPDQSPKSLIYLTSNLASGVPSRFSGSGSGTDYTLTINSLEAEDAATYYCQQWSSNPPTFGQGTKLEIK |
| – | 0.134 nM | 276 MFI | 0.059 nM | 3.67 OD450 | Hu002-22 (antibody, V domains shown, humanized from mAb002c; also called Hu002c-22) VH: QVQLVQSGAEVKKPGASVKVSCKASGYPFTDFYINWVRQAPGQGLEWMGWIYPGSGNTKYNEKFKGRVTMTRDTSISTAYMELSRLRSDDTAVYYCARSTGFFDYWGQGTLVTVSS VL: QIVLTQSPDFQSVTPKEKVTITCSASSSIGYMYWYQQKPDQSPKSLIYLTSNLASGVPSRFSGSGSGTDYTLTINSLEAEDAATYYCQQWSSNPPTFGQGTKLEIK |
